Target: CD9-EGFP-FRB (UniProt P21926)

Question: Which luciferase activity in EVs released from co-transfected HEK-293 cells, rapamycin dose series for 24 h (rapamycin is the bridging compound) does the source give for mCherry-FKBP12-luciferase here?
Answer: 3 fold

Reference: publication PMC10253715
